Blank lines part the entries; values can stand above or below the molecule they belong to. *1 amine or outer side, *2 acyl side, *3 side chain or, on linkers, in order; H or OH if unused. Where no end group is shown, it is not given here. [ ]: non-standard residue; d: D form. The star is where a group is joined. 2‑CF3‑Bip = 4-(2-trifluoromethylphenyl)-L-phenylalanine, O=C([C@H](Cc1ccc(-c2ccccc2C(F)(F)F)cc1)N[*:1])[*:2]; Phe(2-NH2) = O=C([C@H](Cc1ccccc1N[*:3])N[*:1])[*:2]; Acetyl(2-(piperazin-1-yl)) = O=C(CN1CCNCC1)*; Chg = N[C@H](C(=O)O)C1CCCCC1; GABA = NCCCC(=O)O; βAla = NCCC(=O)O
What was measured:
MIA PaCa-2 tumors = test: Tumor xenograft with MIA PaCa-2 cells; type: in vivo, nu/nu mice
[1] = 8 mg/Kg daily, IV, Balb/C mice, 3 mice
[2] = biological target: T1, EphA2 ligand binding domain (EphA2-LBD), recombinant (UniProt P29317 27-200, limits assumed); test: DELFIA displacement; competitor: immobilised 123B9-Biotin
T1 construct: also called EphA2 protein; isolated EphA2-LBD

[3] = biological target: T1, EphA2 ligand binding domain …; test: ITC
[4] = dose equivalent to […] of PTX (targefrin-PTX 10 mg/Kg, targefrin-dimer-PTX 17 mg/kg), IV days 1, 4, 8, 11, 15, 18, compared to untreated and PTX groups

T1 sequence (P29317 27-200 limits assumed): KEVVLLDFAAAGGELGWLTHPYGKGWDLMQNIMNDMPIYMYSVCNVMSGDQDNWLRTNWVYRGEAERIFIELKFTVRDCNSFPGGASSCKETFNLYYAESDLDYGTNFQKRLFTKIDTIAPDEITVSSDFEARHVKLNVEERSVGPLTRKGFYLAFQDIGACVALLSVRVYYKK

-TΔS [3]: 9.7 kcal/mol
ΔH [3]: -20.2 kcal/mol
B2: targefrin (agent 27) (peptide)
peptide: XLAXPDAXPFRP
modifications: N-terminal PiperazAcAcid cap; X1 = 2NH2-Phe; X4 = 2-CF3-Bip; X8 = Chg; C-terminal CONH2
notes: also called targefrin monomer; monomeric version of targefrin

IC50 [2]: 5.3 nM
B3: dimeric targefrin agent 30 (n = 3, GABA spacer) (peptide)
peptide: {Acetyl(2-(piperazin-1-yl))}-[Phe(2-NH2)]LA[2‑CF3‑Bip]PDA[Chg]PFRP[GABA]
chain: Lys-NH2
modifications: also: branching Lys carries a second identical arm (dimer)

IC50 [2]: 6.5 nM
B4: targefrin-dimer (agent 28, n = 1, Gly-Lys linker) (peptide)
peptide: XLAXPDAXPFRPG
chain: K
modifications: branching Lys that carries one arm on each of its two amines; C-terminal CONH2; N-terminal PiperazAcAcid cap; X1 = 2-NH2-Phe; X4 = 2-CF3-Bip; X8 = Chg; the C-terminal Gly is joined to an amine of the branching Lys

The remaining lines, values behind:

Molecule: CC(=O)O[C@H]1C(=O)[C@@]2(C)[C@H]([C@H](OC(=O)c3ccccc3)[C@]3(O)C[C@H](OC(=O)[C@H](OC(=O)CCCCCn4cc(CCCC(=O)NCCCC[C@H](NC(=O)CNC(=O)[C@H](CCCCNC(=O)CNC(=O)[C@@H]5CCCN5C(=O)[C@@H](CCCNC(=N)N)NC(=O)[C@@H](Cc5ccccc5)NC(=O)[C@H]5CCCN5C(=O)[C@H](NC(=O)[C@@H](C)NC(=O)[C@@H](CC(=O)O)NC(=O)[C@@H]5CCCN5C(=O)[C@H](Cc5ccc(-c6ccccc6C(F)(F)F)cc5)NC(=O)[C@H](C)NC(=O)[C@H](CC(C)C)NC(=O)[C@H](Cc5ccc(N)cc5)NC(=O)CN5CCNCC5)C5CCCCC5)NC(=O)CNC(=O)[C@@H]5CCCN5C(=O)[C@H](CCCNC(=N)N)NC(=O)[C@H](Cc5ccccc5)NC(=O)[C@@H]5CCCN5C(=O)[C@@H](NC(=O)[C@H](C)NC(=O)[C@H](CC(=O)O)NC(=O)[C@@H]5CCCN5C(=O)[C@H](Cc5ccc(-c6ccccc6C(F)(F)F)cc5)NC(=O)[C@@H](C)NC(=O)[C@@H](CC(C)C)NC(=O)[C@@H](Cc5ccc(N)cc5)NC(=O)CN5CCNCC5)C5CCCCC5)C(N)=O)nn4)[C@@H](NC(=O)c4ccccc4)c4ccccc4)C(C)=C1C3(C)C)[C@]1(OC(C)=O)CO[C@@H]1C[C@@H]2O [targefrin-dimer-PTX, [PiperazAcAcid-(2-NH2-Phe)-L-A-(2-CF3-Bip)-PD-A-Chg-PFRPG]2-KGK-(Linker)-PTX]
antitumor effect (tumor volume) (MIA PaCa-2 tumors; [4]): significant antitumor effect
antitumor effect (tumor volume) (MIA PaCa-2 tumors; lower dose 10 mg/kg, equivalent to 1.5 mg/kg of PTX, compared to PTX […] group): more effective than the PTX treated group

Molecule: CC(=O)O[C@H]1C(=O)[C@@]2(C)[C@H]([C@H](OC(=O)c3ccccc3)[C@]3(O)C[C@H](OC(=O)[C@H](O)[C@@H](NC(=O)c4ccccc4)c4ccccc4)C(C)=C1C3(C)C)[C@]1(OC(C)=O)CO[C@@H]1C[C@@H]2O [PTX, paclitaxel, reference compound]
mice found dead after the 2nd dose [1]: 2 of 3

Molecule: PiperazAcAcid-(2-NH2-Phe)-L-A-(2-CF3-Bip)-PD-A-Chg-PFRPG-K-(Linker)-PTX (XLAXPDAXPFRPGK; not fully specified; non-natural residues) [targefrin-PTX]
antitumor effect (tumor volume) (MIA PaCa-2 tumors; [4]): significant antitumor effect

B1: dimeric targefrin agent 29 (n = 2, β-Ala spacer) (peptide)
peptide: {Acetyl(2-(piperazin-1-yl))}-[Phe(2-NH2)]LA[2‑CF3‑Bip]PDA[Chg]PFRP[βAla]
chain: Lys-NH2
modifications: also: branching Lys carries a second identical arm (dimer)
IC50 [2]: 7.6 nM
